From patent US20180252712A1, “RECEPTOR FOR NOROVIRUS AND USES THEREOF” (priority 2017, published 2018) come the findings set out here.

One assay has as its system BV2 cells. The experiment in a line: Kifunensine treatment, WGA-FITC staining of cell surface carbohydrates. It is filed as cell-based, mouse. To be noted: 1 μg/ml kifunensine for at least 48 hours. As to the method:
(§1) To determine the effect of glycans on MNoV binding, parental BV2 cells, ΔCD300lf BV2 clone 1 cells complemented with an empty lentivirus, and ΔCD300lf BV2 clone 1 cells complemented with CD300lf were cultured in the presence of 1 μg/ml of kifunensine (Santa Cruz Biotechnology) for at least 48 hours prior to use. Kifunensine activity was determined by staining cells with FITC-conjugated wheat germ agglutinin (WGA) at 1 μg/ml final concentration (Sigma Aldrich). The reduction in glycosylation was determined by comparing the mean fluorescence intensity (MFI) with and without kifunensine treatment. WGA binding was determined at the time of each binding assay.

Assay [1] concerns MNoV^CW3. The experiment in a line: MNoV binding assay to BV2 cells (bound genomes by qPCR). It is filed as cell-based, murine norovirus. The protocol:
MNoV^CW3 quantitiatve PCR (qPCR) was performed as previously described. Briefly, 5 μl of extracted viral RNA was used for cDNA synthesis using random hexamers and ImProm Reverse Transcriptase (Promega, Madison, Wis.) in 20 μl total volume. TaqMan qPCR was performed in triplicate on each sample and standard with forward primer SEQ ID NO:20 (5′ […] 3′), reverse primer SEQ ID NO:21 (5′ GCGCTGCGCCATCACTC 3′), and probe.
MNoV^CW3 binding to BV2 cells was performed for 1 hour at 4° C. in 0.5 ml complete growth media. sCD300lf was incubated with MNoV^CW3 for 30 minutes at room temperature prior to addition to cells. α-CD300lf was incubated with cells for 30 minutes at 4° C. prior to the addition of MNoV^CW3. BV2 cells were used at final concentration of 2×10^6 cells/ml, and MNoV^CW3 was used at a final concentration of 1.6×10^9 copies/ml (2.5×10^6 PFU/ml). Cells were centrifuged at 500 g for 5 min at 4° C. to remove unbound virus. Cells were washed with four 1.0 ml washes with PBS containing 2.5% FBS and 2 mM EDTA. The cell pellet was resuspended in 100 μl PBS, and RNA was extracted with the ZR Viral RNA kit (Zymo Research) according to manufacturer instructions. qPCR was performed as described above. Binding experiments were done in triplicate in each of at least three independent experiments. A condition containing virus but no cells was used to determine assay background.
as §1
Background: In qPCR the cycle at which signal appears reflects the starting amount.

For assay [2], the system named is MNoV^CW3. The experiment in a line: MNoV neutralization with α-CD300lf and sCD300lf (cytotoxicity, CellTiter-Glo). The class given is cell-based, murine norovirus. The following applies: virus preincubated with protein, 0.01 to 10 μg/ml; 24 hours post-infection. The protocol:
MNoV neutralization was assessed by measuring cytotoxicity. 2.5×10^4 BV2 cells were plated per well of a 96-well plate. For antibody-mediated neutralization, cells were then incubated for 1 hour at 37° C. with polyclonal α-CD300lf (R&D systems AF2788) or an isotype control (R&D systems AB-108-C) at a final concentration from 0.01 to 10 μg/ml. MNoV^CW3 was then added at an MOI of 5 in a total volume of 100 μl. After 24 hours at 37° C., 25 μl of CellTiter-Glo (Promega) was added per well to measure cellular ATP concentrations. For sCD300lf neutralization, the assay was performed similarly except that 1.25×10^5 PFU of MNoV^CW3 was incubated with sCD300lf or a control protein (Domain III of West Nile Virus Envelope) at a final concentration from 0.01 μg to 10 μg/ml prior to addition of BV2 cells. Relative luminescence units were detected on Molecular Devices SpectraMax M2 plate reader. All conditions were normalized to an uninfected control. Each condition was done in quadruplicate in each of three independent experiments.
(In general: In ATP-based viability assays light output follows the ATP content of the culture.)

The test system of assay [3] is MNoV^CW3. The experiment in a line: Spleen-derived MNoV neutralization (plaque assay). The class given is cell-based, murine norovirus. The following applies: 75 PFU spleen-derived or BV2-derived virus, 10 μg/ml, 30 min preincubation. As to the method: BV2 cells were seeded at 1×10^6 cells/well of a six-well plate. 16-24 hours later, media was removed and 10-fold dilutions of cell lysate is applied to each well for 1 hour with gentle rocking. Viral inoculum was removed and 2 ml of overlay media was added (MEM, 10% FBS, 2 mM L-Gluatmine, 10 mM HEPES, and 1% methylcellulose). Plates were incubated for 2-3 days prior to visualization with crystal violet solution (0.2% crystal violet and 20% ethanol).
To isolate in vivo derived MNoV^CW3, five 7-8 week old C57BL/6J were inoculated PO with 10^6 PFU MNoV^CW3 in 25 μl PBS. Three days post inoculation, mice were sacrificed and spleens were harvested. Spleens were processed by bead beating with 1 mm silica beads (Biospec, Bartlesville, Okla.) for 1 minute. The spleen extract was centrifuged for 5 minutes at 3,000 g, the supernatant was filtered through a 0.22 μm filter, frozen at −80° C., and titered on BV2 cells as described previously.
75 PFU of either BV2 cell-derived or spleen-derived MNoV^CW3 was incubated for 30 min. at room temperature with either sCD300lf or WNV E DIII at 10 μg/ml final concentration in 100 μl total volume of D10. Each sample was then added to a confluent monolayer of BV2 cells in a 6-well plate and incubated for 1 hr. at room temperature. […] Complete media containing methylcellulose was then added and plaque formation was assessed as described previously. […]

For assay [4], the system named is MNoV^CW3. The experiment in a line: BMDM infection, FACS for intracellular MNoV NS1/2 expression. It is filed as cell-based, murine norovirus. The following applies: virus preincubated with sCD300lf or cells treated with α-CD300lf; MOI 5.0. The protocol: BL6 myeloid progenitors were obtained from mice (FIG. 2E) or from HoxB8-immortalized progenitors (FIG. 2D) as previously described.HoxB8-immortalized progenitors were maintained in RPMI 1640 supplemented with 1 μM β-estradiol and 25 ng/ml GM-CSF. Progenitors were differentiated into macrophages by washing the cells in PBS and plating 1×10^6 cells into BMDM media (Dulbeco's Modified Eagle Medium, 10% fetal bovine serum, 5% horse serum, 10% CMG14-12 [6], 1 mM sodium pyruvate, 2 mM L-glutamine). After 7 days of differentiation, macrophages were dissociated and 5×10^6 cells/well were seeded into a 6-well dish. Three days later, MNoV^CW3 was added to cells at an MOI of 5.0. One day post infection, MNoV NS1/2 expression was detected by flow cytometry.
Infected cells were fixed and permeabilized with Cytofix/Cytoperm (BD biosciences) Rabbit polyclonal antibody targeting the MNoV nonstructural protein NS1/2 antibody was added at a 1:5000 dilution (Gift from Vernon Ward). Cells were incubated for 30 min. at room temperature. Cells were then washed and DyLight 649 donkey anti-rabbit IgG was added and incubated for 30 min. Cells were then washed and analyzed on an LSRII flow cytometer (BD). At least 20,000 events were collected per condition. Each experiment was performed in triplicate in each of three independent experiments.

The test system of assay [5] is MNoV^CW3. In words: Challenge of STAT1−/− mice with preincubated MNoV^CW3, survival. The class given is in vivo, murine norovirus. To be noted: PO 10^3 or 10^5 PFU MNoV^CW3 preincubated at 10 μg/ml, 28 days. The protocol: B6.129S(Cg)-Stat1^tm1Div/J (STAT1^−/−) mice and C57BL/6J (Jackson Laboratories, Bar Harbor, Me.) and Fut2^−/− (B6.129X1-Fut2^tm1Sdo/J) mice (a generous gift from Dr. Alexander V. Chervonsky) were housed in a specific-pathogen free environment at Washington University. The care and use of all animals was approved by and in accordance with the Washington University Animal Studies Committee. For the challenge of STAT^−/− mice, MNoV^CW3 was incubated with sCD300lf or WNV E DIII at a final concentration of 10 μg/ml for 30 minutes at room temperature. STAT1^−/− mice were challenged with 25 μl PO of 10^3 or 10^5 PFU of MNoV^CW3 diluted in D10. STAT1^−/− mice were singly housed immediately after inoculation and monitored daily for survival for 28 days. Experiments were performed three independent times with gender-balanced littermate controls at both 10^3 and 10^5 PFU challenge doses.

On to `O=C1N[C@@H]2[C@@H](O)[C@@H](O)[C@H](O)[C@@H](CO)N2C1=O` [kifunensine], for which the “Cell surface carbohydrates (WGA-FITC binding, MFI)” value with BV2 cells is recorded as “significantly reduced cell surface carbohydrates”. The “MNoV^CW3 binding to kifunensine treated cells” value in the assay on MNoV^CW3 [1] (wild type or CD300lf-mutant BV2 cells, 1 μg/ml kifunensine) is “did not significantly alter MNoV^CW3 binding”.

B1: sCD300lf: recombinant, soluble ectodomain of mouse CD300lf (residues 20-128 of GenBank AAH57864.1), expressed in E. coli and refolded (protein)
chain: MEDPVTGPEEVSGQEQGSLTVQCRYTSGWKDYKKYWCQGVPQRSCKTLVETDASEQLVKKNRVSIRDNQRDFIFTVTMEDLRMSDAGIYWCGITKGGLDPMFKVTVNIGP
With B1, the “MNoV^CW3-induced cytopathic effect in BV2 cells (cell viability)” value with MNoV^CW3 [2] is on record as “neutralized MNoV^CW3-induced cytopathic effect”. For the same molecule, the “MNoV^CW3 binding to BV2ΔCD300lf cells” value with MNoV^CW3 [1] (BV2ΔCD300lf cells, cells treated with α-CD300lf or virus premixed with sCD300lf) was “not further inhibited”. Besides, the “MNoV^CW3 binding to BV2 cells” value in the assay with MNoV^CW3 [1] (wild type BV2 cells, cells treated with α-CD300lf or virus preincubated with sCD300lf, 1 hour at 4° C.) is “reduced MNoV binding”. Besides, in the assay on MNoV^CW3 [3], the “Neutralization of MNoV isolated from spleens of MNoV^CW3-infected mice (plaque assay)” value is “remained sensitive to sCD300lf inhibition”. Further, in the assay on MNoV^CW3 [4], the “MNoV^CW3 infection of primary bone marrow-derived macrophages (NS1/2 expression by FACS)” value was “inhibited”. Moreover, the “Protection from MNoV induced lethality (survival)” value with MNoV^CW3 [5] is “able to protect from MNoV induced lethality”.
